From patent US20240228612A1 (SICHUAN KELUN BIOTECH BIOPHARMACEUTICAL, published 2024)
Read-outs that look alike come from different tables or passages of the source.

Columns and labels:
[1] = molecular target: T1, human Nectin-4 protein (human, UniProt Q96NY8 32-349); assay: competitive ELISA, coated Nectin-4; competitor biotin-labeled Nectin-1-hFc
T1 construct: Purified protein used for coating in ELISA and as analyte in Octet; also called human Nectin-4 antigen
T1 sequence (looked up): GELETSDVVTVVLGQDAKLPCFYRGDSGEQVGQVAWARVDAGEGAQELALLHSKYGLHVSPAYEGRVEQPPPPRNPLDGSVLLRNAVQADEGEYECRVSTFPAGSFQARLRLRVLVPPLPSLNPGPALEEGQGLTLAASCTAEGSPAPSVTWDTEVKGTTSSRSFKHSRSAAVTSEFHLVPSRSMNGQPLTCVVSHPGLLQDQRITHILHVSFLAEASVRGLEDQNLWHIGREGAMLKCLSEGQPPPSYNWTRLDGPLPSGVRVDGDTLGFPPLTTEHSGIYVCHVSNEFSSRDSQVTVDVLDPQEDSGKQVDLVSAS
Method: Human Nectin-4 is linked to another Nectin-4 molecule or Nectin-1 molecule through the IgV domain. Because 31HZ, 56HZ and 74HZ all bind to the IgV domain of Nectin-4, the competitive activity of the three antibodies was detected by competitive ELISA. The specific steps were as follows: Nectin-4 protein was diluted to 2 μg/mL with CBS coating solution, 100 μL per well, and incubated at 37° C. for 2 hours; washing was performed once with 300 μL PBST, PBS (2% BSA) was then added, 100 μL per well, and incubation was performed at 37° C. for 2 hours; biotin-labeled Nectin-1-hFc was diluted with PBS (2% BSA) to 20 μg/mL; the antibody to be detected was diluted with PBS (2% BSA), wherein the dilution of 31HZ and 74HZ was started from 3.73 μg/mL, 3-fold dilution, and 9 concentration points, the dilution of 56HZ was started from 1.25 μg/mL, 2-fold dilution, and 10 concentration points; the above two diluted solutions were mixed well in equal volumes, and then added to the corresponding well at 100 μL/well, and incubation was performed at room temperature for 2 hours; washing was performed three times with 300 μL PBST; HRP-streptavidin was diluted with PBS (2% BSA) at a ratio of […], and added to the corresponding well at 100 μL/well, incubation was performed at room temperature for 1 hour; washing was performed five times with 300 μL of PBST; 100 μL of TMB was added to the corresponding well, color development was performed at room temperature for 10 minutes, and then terminated by adding 50 μL of 2N H₂SO₄, and a microplate reader was used for collecting readings at 450 nm.

[2] = molecular target: T2, cynomolgus monkey Nectin-4 protein (cynomolgus monkey); assay: ELISA, coated cynomolgus monkey Nectin-4, anti-human-HRP
T2 construct: also called cynomolgus monkey Nectin-4 antigen

[3] = molecular target: T3, human Nectin-4 on cell membrane surface (human, UniProt Q96NY8 32-510); assay: flow cytometry on NCI-N87 cells
T3 construct: whole, on cells; also called A549-Nectin-4; T24-Nectin-4
T3 sequence (looked up): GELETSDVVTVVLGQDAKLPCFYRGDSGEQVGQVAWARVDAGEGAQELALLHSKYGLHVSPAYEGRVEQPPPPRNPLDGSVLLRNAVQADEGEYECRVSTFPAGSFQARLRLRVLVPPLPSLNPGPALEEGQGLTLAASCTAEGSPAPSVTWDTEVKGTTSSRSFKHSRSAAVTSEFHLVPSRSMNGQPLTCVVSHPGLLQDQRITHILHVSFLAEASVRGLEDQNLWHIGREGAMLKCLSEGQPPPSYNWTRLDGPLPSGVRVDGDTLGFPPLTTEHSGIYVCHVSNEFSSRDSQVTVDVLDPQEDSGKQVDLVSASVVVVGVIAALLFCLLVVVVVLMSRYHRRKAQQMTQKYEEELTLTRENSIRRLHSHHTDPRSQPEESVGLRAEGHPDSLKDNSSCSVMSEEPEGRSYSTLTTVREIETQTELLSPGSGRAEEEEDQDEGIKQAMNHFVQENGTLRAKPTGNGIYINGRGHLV

[4] = molecular target: T1, human Nectin-4 protein; assay: ELISA, coated human Nectin-4, anti-human-HRP
[5] = molecular target: T1, human Nectin-4 protein; assay: ELISA, coated human Nectin-4, anti-human-HRP; remark: listed apart in the source
[6] = molecular target: T1, human Nectin-4 protein; assay: BLI (Octet Fortebio), antibody on ProA sensor, Nectin-4 as analyte, 1:1 global fit
Method: (§1) The dynamic affinity of anti-human Nectin-4 humanized monoclonal antibodies was detected using Octet Fortebio®. The main steps comprised: firstly, the anti-human Nectin-4 humanized monoclonal antibody (concentration of 5 μg/mL) was immobilized on ProA sensor, then subjected to binding reaction with human or cynomolgus monkey Nectin-4 (gradiently diluted to 400 nM, 200 nM, 100 nM, 50 nM, 25 nM, 12.5 nM, 6.25 nM, 0 nM), and the anchored product in the solid phase obtained through fully reaction was subjected to dissociation reaction in PBST buffer. After the completion of the experiment, the results were analyzed by using Data Analysis 11.0 software at 1:1 mode to perform global fitting, thereby obtaining the affinity constant of antibody to antigen.

[7] = molecular target: T2, cynomolgus monkey Nectin-4 protein; assay: as above
Method: as §1

[8] = molecular target: T2, cynomolgus monkey Nectin-4 protein; assay: ELISA, coated cynomolgus monkey Nectin-4, anti-human-HRP; remark: listed apart in the source
[9] = molecular target: T1, human Nectin-4 protein; assay: ELISA, coated antigen
Source text: (§2) The affinity of anti-human Nectin-4 humanized monoclonal antibodies to Nectin-4 protein of different species was detected by ELISA.

[10] = molecular target: T2, cynomolgus monkey Nectin-4 protein; assay: ELISA, coated antigen
Source text: as §2

[11] = molecular target: T1, human Nectin-4 protein; assay: ELISA, coated human Nectin-4, anti-human-HRP; remark: listed apart in the source
[12] = molecular target: T3, human Nectin-4 on cell membrane surface; assay: flow cytometry on T47D cells
Method: The specific steps were as follows: T47D cells were digested, resuspended by centrifugation, and washed twice with PBS; the cells were resuspended in PBS (containing 1% BSA), and spread into a 96-well tip-bottom plate at 3×10⁵ cells/well, with a volume of 50 μl per well; 50 μL of the antibody to be tested was added to each well, starting at a final concentration of […], 4-fold gradient dilution, a total of 10 concentration points; Human IgG was used as a negative control; after being mixed well, the resulting mixture was reacted in the dark at 4° C. for 1 hour; washing was performed 3 times with PBS, FITC-labeled anti-human Fc secondary antibody (brand: BioLegend, product number: 409322) was added, incubated at 4° C. for 0.5 hours in the dark; washing was performed 3 times with PBS, and detection was carried out using a flow cytometer (flow cytometer brand: Beckman, model: Cytoflex).

[13] = molecular target: T1, human Nectin-4 protein; assay: ELISA, coated human Nectin-4
Method: Human Nectin-4 (Sino Biological, Cat: 19771-H08H) was diluted to 1 μg/mL with carbonate (CBS) buffer, added to a 96-well plate at a volume of 100 μL/well, and placed at 4° C. for 16-20 h. The CBS buffer in the 96-well plate was discarded by pipetting, the plate was washed once with PBST (pH 7.4, PBS containing 0.05% Tween 20) buffer, added with 200 μL/well of skim milk powder (blocking solution) containing 2% PBST, incubated for 1 h at room temperature for blocking. The blocking solution was removed, and the plate was washed three times with PBST buffer. The anti-Nectin-4 mouse antibody to be tested was diluted with PBST/2% skim milk powder to an appropriate concentration, then added to the plate at a volume of 100 μL/well, and incubated at room temperature for 1.5 h. The reaction system was removed, and the plate was washed three times with PBST, and 50 μL/well of HRP-labeled goat anti-mouse IgG secondary antibody (purchased from the Jackson Laboratory) diluted with PBST/1% skim milk powder (dilution ratio 1:5000) was added, and incubated at room temperature for 1 h. After the plate was washed 3 times with PBST, 100 μL/well of TMB was added, and incubated at room temperature for 5-10 min for color development. The color development was stopped by adding 50 μL/well of 0.2 M sulfuric acid. Microplate reader was used to detect optical density (O.D.) at dual wavelengths 450/620 nm.

B1: Enfortumab (antibody, V domains shown)
VH: EVQLVESGGGLVQPGGSLRLSCAASGFTFSSYNMNWVRQAPGKGLEWVSYISSSSSTIYYADSVKGRFTISRDNAKNSLSLQMNSLRDEDTAVYYCARAYYYGMDVWGQGTTVTVSS
VL: DIQMTQSPSSVSASVGDRVTITCRASQGISGWLAWYQQKPGKAPKFLIYAASTLQSGVPSRFSGSGSGTDFTLTISSLQPEDFATYYCQQANSFPPTFGGGTKVEIKR
IC50 [1]: 27.1 ng/mL
EC50 (read off the curve) [2]: ~7 ng/mL
EC50 [3]: 22.1 ng/mL
EC50 (read off the curve) [4]: ~5 ng/mL
EC50 (read off the curve) [5]: ~9 ng/mL
Kd [6]: 28.3 nM
Kd [7]: 33.6 nM
EC50 (read off the curve) [8]: ~6 ng/mL
EC50 [9]: 7.1 ng/mL
EC50 [10]: 6 ng/mL
EC50 (read off the curve) [11]: ~7 ng/mL
EC50 [12]: 10.1 ng/mL

B2: anti-human Nectin-4 murine monoclonal antibody 56# (antibody, V domains shown)
VH: QVQLKESGPGLVKPSQSLSLTCTVTGYSITSDYDWHWIRHFPGNMLEWMGYISFSGRTYYNPSLKSRISITHDTSKNHFFLRLNSVTTEDTATYYCARGNYDGFDYWGQGTTLTVSS
VL: DIQLTQSPAILSVSPGERVSFSCRASQNIGTSIHWYQHRTNGSPRLLIKFASESISGIPSRFSGSGSGTDFTLSINSVESEDIADYYCQQSKSWPTYTFGGGTKLEIK
notes: Murine antibody purified by Protein A from hybridoma supernatant
EC50 [13]: 0.0363 nM

B3: anti-human Nectin-4 murine monoclonal antibody 31# (antibody, V domains shown)
VH: EVQLQQPGADLVRPGASVKLSCKASGYTFTDYWMNWVKLRPGQGLEWIGMIHPSDSETRLNQKFKDKATLTVDKSSSTAYMQLSSPTSEDSAVYYCARWDFRIYYAMDYWGQGTSVTVSS
VL: DVVITQSPSSLAMSVGQKVTMSCKSSQSLLNTNSQKNYLAWYQQKPGQSPKLLVYFASTRESGVPDRFIGSGSGTDFTLTITSVQAEDLADYFCQQHYSTPLTFGAGTKLEIK
notes: as for B2
EC50 [13]: 0.0549 nM

B4: anti-human Nectin-4 murine monoclonal antibody 74# (antibody, V domains shown)
VH: EVQLQQPGAELVRPGASVKLSCKASGYTFINYWMNWVKQRPGQGLEWIGMIHPSDSATRLNQKFKDKATLTVDKSSSTAYMQLSSPTSEDSAVYYCARWGNFYTVNAWYYFDYWGHGTTLTVSS
VL: DIVITQSPSSLAMSVGQKVTMSCKSSQTLLNSNTQKNYLAWYQQKPGQSPKLLFYFASTRESGVPDRFIGSGSGTNFTLTISSVQAEDLADYFCQQHYSTPLTFGAGTKLEIK
notes: as for B2
EC50 [13]: 0.0694 nM
